Experimental data from the supplement of paper PMC10065799, “High-throughput profiling of sequence recognition by tyrosine kinases and SH2 domains using bacterial peptide display” (eLife, 2023).

Assays:
Grb2 SH2 = Grb2 SH2 (UniProt P62993); experiment: SH2 binding enrichment of the phosphorylated peptide, bacterial display (enrichment ratio); higher = better substrate or ligand; peptides without Tyr show the background
c-Src SH2 = experiment: as above
SHP2-C SH2 = experiment: as above
EPHB2 = EPHB2 (UniProt P29323); experiment: phosphorylation enrichment, bacterial display (enrichment ratio); higher = better substrate or ligand; peptides without Tyr show the background
EPHB1 = EPHB1 (UniProt P54762); experiment: as above
FGFR3 = FGFR3 (UniProt P22607); experiment: as above
MERTK = MERTK (UniProt Q12866); experiment: as above
Chain of MERTK (Q12866 whole entry, looked up): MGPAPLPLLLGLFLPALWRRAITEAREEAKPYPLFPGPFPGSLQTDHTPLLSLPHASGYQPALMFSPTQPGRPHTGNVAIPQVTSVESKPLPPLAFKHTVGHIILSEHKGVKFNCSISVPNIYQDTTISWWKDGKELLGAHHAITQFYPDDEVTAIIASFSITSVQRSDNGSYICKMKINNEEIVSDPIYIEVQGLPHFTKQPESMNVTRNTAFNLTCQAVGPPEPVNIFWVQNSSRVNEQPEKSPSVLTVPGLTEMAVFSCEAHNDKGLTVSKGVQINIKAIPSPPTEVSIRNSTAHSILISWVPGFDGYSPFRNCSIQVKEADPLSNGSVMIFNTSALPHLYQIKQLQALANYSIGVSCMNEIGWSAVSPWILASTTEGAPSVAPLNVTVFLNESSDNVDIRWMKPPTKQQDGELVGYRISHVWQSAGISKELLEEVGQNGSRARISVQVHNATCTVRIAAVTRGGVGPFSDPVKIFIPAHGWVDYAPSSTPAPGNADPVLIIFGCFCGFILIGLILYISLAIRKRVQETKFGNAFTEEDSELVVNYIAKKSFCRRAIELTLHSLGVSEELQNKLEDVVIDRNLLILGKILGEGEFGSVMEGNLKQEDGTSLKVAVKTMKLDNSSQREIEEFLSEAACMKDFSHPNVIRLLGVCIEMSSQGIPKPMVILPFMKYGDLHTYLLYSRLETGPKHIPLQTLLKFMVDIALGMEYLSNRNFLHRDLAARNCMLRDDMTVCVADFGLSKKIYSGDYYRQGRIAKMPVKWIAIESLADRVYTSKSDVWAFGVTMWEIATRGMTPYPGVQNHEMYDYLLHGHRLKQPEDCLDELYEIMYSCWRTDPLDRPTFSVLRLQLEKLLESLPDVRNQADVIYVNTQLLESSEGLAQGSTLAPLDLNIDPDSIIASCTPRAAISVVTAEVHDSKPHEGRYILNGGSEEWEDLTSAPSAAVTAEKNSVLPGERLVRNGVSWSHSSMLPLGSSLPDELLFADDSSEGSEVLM

c-Src = experiment: as above
c-Abl (mouse) = experiment: as above
Hck = Hck (UniProt P08631); experiment: as above
Chain of Hck (P08631 whole entry, looked up): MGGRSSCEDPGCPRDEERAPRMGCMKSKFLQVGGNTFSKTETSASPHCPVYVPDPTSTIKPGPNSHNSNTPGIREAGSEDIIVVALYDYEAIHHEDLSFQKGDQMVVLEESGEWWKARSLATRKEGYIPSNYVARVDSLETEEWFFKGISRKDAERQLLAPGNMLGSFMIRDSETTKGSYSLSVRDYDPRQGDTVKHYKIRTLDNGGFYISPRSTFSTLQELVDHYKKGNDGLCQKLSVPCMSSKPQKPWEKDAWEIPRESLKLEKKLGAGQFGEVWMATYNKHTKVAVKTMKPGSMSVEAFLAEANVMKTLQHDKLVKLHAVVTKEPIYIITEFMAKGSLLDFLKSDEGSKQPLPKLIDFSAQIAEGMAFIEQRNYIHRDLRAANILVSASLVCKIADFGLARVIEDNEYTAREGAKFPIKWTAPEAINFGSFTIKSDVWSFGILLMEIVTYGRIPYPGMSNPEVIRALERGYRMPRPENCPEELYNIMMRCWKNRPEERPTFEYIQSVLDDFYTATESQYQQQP

Jak2 = Jak2 (UniProt O60674); experiment: as above
Chain of Jak2 (O60674 whole entry, looked up): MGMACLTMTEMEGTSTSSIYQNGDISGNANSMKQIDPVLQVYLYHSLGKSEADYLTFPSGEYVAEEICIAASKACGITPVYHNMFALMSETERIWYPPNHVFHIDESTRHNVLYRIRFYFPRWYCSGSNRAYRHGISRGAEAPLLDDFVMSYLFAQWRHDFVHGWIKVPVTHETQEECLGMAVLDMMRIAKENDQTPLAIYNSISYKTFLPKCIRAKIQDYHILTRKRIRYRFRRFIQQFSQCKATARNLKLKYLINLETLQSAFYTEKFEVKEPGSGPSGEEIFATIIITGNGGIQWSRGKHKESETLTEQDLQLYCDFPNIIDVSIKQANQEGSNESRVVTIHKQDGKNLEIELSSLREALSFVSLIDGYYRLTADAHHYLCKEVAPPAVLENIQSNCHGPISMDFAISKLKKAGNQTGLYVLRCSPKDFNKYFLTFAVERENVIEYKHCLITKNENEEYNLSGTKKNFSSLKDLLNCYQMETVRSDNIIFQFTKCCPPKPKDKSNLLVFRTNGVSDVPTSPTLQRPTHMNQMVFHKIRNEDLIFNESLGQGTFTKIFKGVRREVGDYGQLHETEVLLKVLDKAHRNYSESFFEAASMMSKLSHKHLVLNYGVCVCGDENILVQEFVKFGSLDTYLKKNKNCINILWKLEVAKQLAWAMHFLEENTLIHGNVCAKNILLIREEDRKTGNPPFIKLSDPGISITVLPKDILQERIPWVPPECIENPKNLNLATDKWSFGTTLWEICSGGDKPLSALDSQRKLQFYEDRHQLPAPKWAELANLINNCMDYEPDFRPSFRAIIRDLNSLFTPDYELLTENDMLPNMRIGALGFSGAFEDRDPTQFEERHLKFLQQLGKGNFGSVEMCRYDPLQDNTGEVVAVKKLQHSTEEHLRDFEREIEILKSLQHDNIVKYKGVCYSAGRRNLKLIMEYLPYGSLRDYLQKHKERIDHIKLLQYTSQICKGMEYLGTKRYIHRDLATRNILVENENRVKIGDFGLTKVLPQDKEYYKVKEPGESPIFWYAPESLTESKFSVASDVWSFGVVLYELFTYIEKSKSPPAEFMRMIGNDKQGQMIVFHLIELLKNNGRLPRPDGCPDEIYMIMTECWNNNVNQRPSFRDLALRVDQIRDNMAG

Fes = Fes (UniProt P07332); experiment: as above
Chain of Fes (P07332 whole entry, looked up): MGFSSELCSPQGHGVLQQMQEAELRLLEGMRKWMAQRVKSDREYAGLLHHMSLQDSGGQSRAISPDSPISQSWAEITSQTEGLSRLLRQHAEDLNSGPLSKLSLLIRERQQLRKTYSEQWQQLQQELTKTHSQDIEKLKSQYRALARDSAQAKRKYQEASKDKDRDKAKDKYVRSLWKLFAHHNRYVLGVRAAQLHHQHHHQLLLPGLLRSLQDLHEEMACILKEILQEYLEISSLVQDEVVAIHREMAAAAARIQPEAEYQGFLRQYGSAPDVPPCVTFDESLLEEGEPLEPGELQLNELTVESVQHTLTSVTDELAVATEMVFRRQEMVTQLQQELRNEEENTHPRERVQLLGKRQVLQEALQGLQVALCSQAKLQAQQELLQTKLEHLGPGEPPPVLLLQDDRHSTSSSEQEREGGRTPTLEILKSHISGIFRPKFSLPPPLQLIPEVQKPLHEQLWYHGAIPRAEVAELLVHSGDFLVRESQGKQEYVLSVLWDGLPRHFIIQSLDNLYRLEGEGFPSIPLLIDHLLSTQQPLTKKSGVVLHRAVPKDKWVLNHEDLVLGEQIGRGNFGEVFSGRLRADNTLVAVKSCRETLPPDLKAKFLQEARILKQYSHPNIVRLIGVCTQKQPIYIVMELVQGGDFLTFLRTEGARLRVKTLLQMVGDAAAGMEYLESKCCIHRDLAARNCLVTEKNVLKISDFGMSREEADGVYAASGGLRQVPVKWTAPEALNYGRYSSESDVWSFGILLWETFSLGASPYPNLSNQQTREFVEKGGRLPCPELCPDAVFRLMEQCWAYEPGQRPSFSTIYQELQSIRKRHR

Fyn = Fyn (UniProt P06241); experiment: as above
Chain of Fyn (P06241 whole entry, looked up): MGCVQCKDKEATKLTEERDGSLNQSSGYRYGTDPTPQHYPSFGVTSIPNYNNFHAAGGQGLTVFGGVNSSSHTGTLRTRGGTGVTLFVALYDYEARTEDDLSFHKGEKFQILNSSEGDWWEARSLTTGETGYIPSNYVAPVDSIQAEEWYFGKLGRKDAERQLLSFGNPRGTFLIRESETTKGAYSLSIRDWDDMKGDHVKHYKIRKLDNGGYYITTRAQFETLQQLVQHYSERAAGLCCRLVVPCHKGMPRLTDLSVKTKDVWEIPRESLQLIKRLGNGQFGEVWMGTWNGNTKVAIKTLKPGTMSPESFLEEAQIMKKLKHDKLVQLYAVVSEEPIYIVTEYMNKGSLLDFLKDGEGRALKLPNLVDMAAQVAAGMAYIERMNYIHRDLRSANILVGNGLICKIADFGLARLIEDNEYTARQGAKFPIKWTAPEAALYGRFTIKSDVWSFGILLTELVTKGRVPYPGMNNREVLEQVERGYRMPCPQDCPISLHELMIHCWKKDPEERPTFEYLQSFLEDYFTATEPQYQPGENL

Fer (mouse) = experiment: as above
AncSZ = experiment: as above
FGFR1 = FGFR1 (UniProt P11362); experiment: as above
Chain of FGFR1 (P11362 whole entry, looked up, the tested form may be a part): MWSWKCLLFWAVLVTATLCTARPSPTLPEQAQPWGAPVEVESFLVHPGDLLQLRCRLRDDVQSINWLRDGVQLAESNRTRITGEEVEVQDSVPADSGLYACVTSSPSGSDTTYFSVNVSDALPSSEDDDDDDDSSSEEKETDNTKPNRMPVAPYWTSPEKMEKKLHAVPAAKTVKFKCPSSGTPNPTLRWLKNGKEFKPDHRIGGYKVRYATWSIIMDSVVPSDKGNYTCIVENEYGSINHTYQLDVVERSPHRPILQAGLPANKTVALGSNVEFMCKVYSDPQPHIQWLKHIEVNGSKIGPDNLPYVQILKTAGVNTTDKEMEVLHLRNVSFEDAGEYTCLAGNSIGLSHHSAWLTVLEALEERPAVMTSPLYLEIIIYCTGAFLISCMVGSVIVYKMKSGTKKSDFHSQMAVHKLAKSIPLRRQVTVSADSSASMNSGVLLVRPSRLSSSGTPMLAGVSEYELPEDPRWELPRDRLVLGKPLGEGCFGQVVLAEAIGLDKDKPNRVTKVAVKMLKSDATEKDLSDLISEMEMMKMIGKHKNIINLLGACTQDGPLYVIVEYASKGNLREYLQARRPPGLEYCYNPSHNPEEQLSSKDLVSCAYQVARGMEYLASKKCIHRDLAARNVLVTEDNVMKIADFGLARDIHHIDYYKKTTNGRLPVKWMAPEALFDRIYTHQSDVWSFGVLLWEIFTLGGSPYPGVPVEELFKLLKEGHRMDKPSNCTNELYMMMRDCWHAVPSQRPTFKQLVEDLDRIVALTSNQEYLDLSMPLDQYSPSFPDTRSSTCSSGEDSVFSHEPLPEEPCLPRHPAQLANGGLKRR
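Wherever SH2 binding enrichment of the phosphorylated peptide, bacterial display is given: peptide library displayed on the E. coli surface as eCPX fusions, selected cells deep-sequenced, score is each peptide's frequency after selection divided by its frequency in the input.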
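Wherever phosphorylation enrichment, bacterial display is given: 11-residue human phosphosite peptides and single-mutation variants displayed on the E. coli surface, counted by deep sequencing, each peptide's frequency after selection divided by its frequency in the unselected input library; frequency after pTyr selection over input frequency; kinase dosed for 20-30% of maximal phosphorylation in three min.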

Chain of Grb2 SH2 (P62993 whole entry, looked up): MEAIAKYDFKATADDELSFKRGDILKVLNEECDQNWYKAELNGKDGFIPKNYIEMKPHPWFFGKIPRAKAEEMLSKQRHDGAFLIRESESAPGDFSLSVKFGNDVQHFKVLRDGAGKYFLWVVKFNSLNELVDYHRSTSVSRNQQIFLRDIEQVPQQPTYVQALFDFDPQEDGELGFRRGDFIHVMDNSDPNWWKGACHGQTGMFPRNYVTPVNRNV

| Sequence | SH2 binding enrichment (Grb2 SH2) | SH2 binding enrichment (c-Src SH2) | SH2 binding enrichment (SHP2-C SH2) | phosphorylation enrichment (EPHB2) | phosphorylation enrichment (EPHB1) | phosphorylation enrichment (FGFR3) | phosphorylation enrichment (MERTK) | phosphorylation enrichment (c-Src) | phosphorylation enrichment (c-Abl (mouse)) | phosphorylation enrichment (Hck) | phosphorylation enrichment (Jak2) | phosphorylation enrichment (Fes) | phosphorylation enrichment (Fyn) | phosphorylation enrichment (Fer (mouse)) | phosphorylation enrichment (AncSZ) | phosphorylation enrichment (FGFR1) |
| --- | --- | --- | --- | --- | --- | --- | --- | --- | --- | --- | --- | --- | --- | --- | --- | --- |
| EQRRAYLEGTC [HLA-C_Y183_L180R] | 0.867 | 0.456 | 0.756 | 0.528 | 0.578 | 0.675 | 0.47 | 0.45 | 0.822 | 0.524 | 0.917 | 1.01 | 0.482 | 0.498 | 0.832 | 0.472 |
| EREYKYGAHNH [OAT_Y50_Y55H] | 0.981 | 0.708 | 0.743 | 0.509 | 0.391 | 0.463 | 0.496 | 0.415 | 0.483 | 0.44 | 0.591 | 0.603 | 0.406 | 0.364 | 0.525 | 0.485 |
| ERFAFYRDSPR [FOXE3_Y108] | 0.774 | 0.522 | 0.751 | 0.51 | 0.456 | 0.566 | 0.489 | 0.587 | 0.625 | 0.523 | 0.835 | 0.785 | 0.49 | 0.404 | 0.889 | 0.474 |
| ERLWDCGMSSS [F8_Y1728_Y1728C] | 1.15 | 0.634 | 0.9 | 0.52 | 0.535 | 0.537 | 0.387 | 0.388 | 0.49 | 0.451 | 0.74 | 0.771 | 0.517 | 0.371 | 0.803 | 0.553 |
| ETDSEYVKLAK [C7orf57_Y70] | 0.816 | 0.479 | 0.676 | 0.492 | 0.441 | 0.478 | 0.398 | 0.391 | 0.588 | 0.425 | 0.69 | 0.817 | 0.433 | 0.335 | 0.934 | 0.377 |
| ETDTRYFDEEF [AKT1_Y437] | 0.902 | 0.775 | 0.916 | 0.714 | 0.633 | 0.81 | 0.527 | 0.679 | 0.875 | 0.665 | 1.37 | 1.29 | 0.544 | 0.563 | 1.32 | 0.567 |
| ETKAFYPEEIS [HSPA1A_Y115] | 0.796 | 0.45 | 0.522 | 0.747 | 0.52 | 0.687 | 0.408 | 0.511 | 0.584 | 0.506 | 1.16 | 0.919 | 0.414 | 0.537 | 1.08 | 0.521 |
| ETWHNYHKFDS [MATR3_Y243_S240W] | 0.865 | 2.09 | 0.791 | 0.605 | 0.799 | 0.732 | 0.458 | 0.439 | 0.48 | 0.448 | 0.71 | 0.755 | 0.468 | 0.395 | 0.7 | 0.942 |
